This passage reports heated/non heated ratio of ELISA reading and ELISA A450 results from patent publication US20230303666A1.

Assay [1] addresses SARS-CoV-2 spike receptor binding domain with C-terminal 3xFlag tag (RBD-3xFlag) (SARS-CoV-2) (UniProt P0DTC2).
For assay [2] the target is unchanged. This is another data set of the same source.

As to VHH72, the heated/non heated ratio of ELISA reading in assay [1] amounted to 0.33. In assay [2], the ELISA A450 was 0.287 A450.
